Reference: article PMC6579465, “The priming factor CAPS1 regulates dense-core vesicle acidification by interacting with rabconnectin3β/WDR7 in neuroendocrine cells” (The Journal of Biological Chemistry, 2019)

Biological target: T1, CAPS1 (calcium-dependent activator protein for secretion, CADPS) (rat (endogenous in rat brain), UniProt Q62717 1-1289)
T1 construct: CAPS1 (CADPS), endogenous protein of rat brain; Precipitated with a rabbit polyclonal CAPS peptide antibody and eluted with the 21-mer peptide immunogen; source: endogenous, rat brain crude synaptosomal membrane fraction, solubilized in 1% Triton X-100
T1 sequence (Q62717 whole entry): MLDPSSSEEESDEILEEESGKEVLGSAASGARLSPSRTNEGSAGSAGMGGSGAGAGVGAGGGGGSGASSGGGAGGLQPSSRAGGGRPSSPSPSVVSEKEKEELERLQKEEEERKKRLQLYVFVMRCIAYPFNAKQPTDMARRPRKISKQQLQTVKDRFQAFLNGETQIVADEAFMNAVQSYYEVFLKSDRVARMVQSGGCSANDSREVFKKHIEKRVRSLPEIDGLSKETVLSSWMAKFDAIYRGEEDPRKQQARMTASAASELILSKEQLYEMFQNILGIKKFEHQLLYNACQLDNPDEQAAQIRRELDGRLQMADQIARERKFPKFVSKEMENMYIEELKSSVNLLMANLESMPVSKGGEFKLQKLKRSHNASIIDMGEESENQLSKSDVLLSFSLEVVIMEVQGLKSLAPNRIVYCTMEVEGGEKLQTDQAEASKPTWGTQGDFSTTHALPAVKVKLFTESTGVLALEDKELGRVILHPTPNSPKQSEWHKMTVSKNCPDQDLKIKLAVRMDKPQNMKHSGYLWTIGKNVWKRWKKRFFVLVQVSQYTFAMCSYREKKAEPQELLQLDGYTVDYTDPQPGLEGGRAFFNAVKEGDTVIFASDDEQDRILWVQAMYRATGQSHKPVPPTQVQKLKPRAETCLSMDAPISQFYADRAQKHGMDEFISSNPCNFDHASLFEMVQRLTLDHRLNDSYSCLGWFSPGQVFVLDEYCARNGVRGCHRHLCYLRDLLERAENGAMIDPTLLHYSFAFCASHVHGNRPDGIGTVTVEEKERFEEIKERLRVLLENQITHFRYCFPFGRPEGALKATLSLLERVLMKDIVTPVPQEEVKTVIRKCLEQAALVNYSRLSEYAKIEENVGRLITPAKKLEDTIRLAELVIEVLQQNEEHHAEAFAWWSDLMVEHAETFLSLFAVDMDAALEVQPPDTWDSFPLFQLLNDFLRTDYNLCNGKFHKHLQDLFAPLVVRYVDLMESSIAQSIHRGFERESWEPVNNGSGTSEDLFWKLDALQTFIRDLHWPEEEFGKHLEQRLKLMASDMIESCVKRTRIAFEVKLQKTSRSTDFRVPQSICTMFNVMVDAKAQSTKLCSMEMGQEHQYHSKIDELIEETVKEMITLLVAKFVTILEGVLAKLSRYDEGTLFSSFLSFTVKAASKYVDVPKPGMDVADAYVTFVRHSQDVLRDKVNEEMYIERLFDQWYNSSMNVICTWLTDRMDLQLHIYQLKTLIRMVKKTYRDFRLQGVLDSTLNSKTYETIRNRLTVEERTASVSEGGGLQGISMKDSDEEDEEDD
Assay: affinity purification with mass spectrometry; CAPS1 immunoprecipitate of detergent extract resolved by SDS-PAGE; Coomassie-stained bands seen in the CAPS1 but not the control immunoprecipitate excised, in-gel digests, LC-MS/MS
Details: partners not purified

- stoichiometry relative to CAPS1 (bands of the immunoprecipitate): 0.167 Rbcn3 subunit : CAPS1
B1: Rabconnectin3β (Rbcn3β) / WD repeat domain 7 (WDR7) (natural protein, rat (endogenous in rat brain), UniProt Q9ERH3 1-1488, looked up)
chain: MAGNSLVLPIVLWGRKAPTHCISSILLTDDGGTIVTGCHDGQICLWDLSEELEVNPRALLFGHTAAITCLSKACASGDKQYTVSASANGEMCLWDVNDGRCIEFTKLACTHTGIQFYQFSVGNQREGRLLCHGHYPEILVVDATSLEVLYSLVSKISPDWISSMSIIRSHRTQEDTVVALSVTGILKVWIVTSEISGLQDTEPIFEEESKPIYCQNCQSLSFCAFTQRSLLVVCSKYWRVFDAGDYSLLCSGPSEDGQTWTGGDFVSADKVIIWTENGQSYIYKLPASCLPASDSFRSDVGKAVENLIPPVQHSLLDQKDRELVICPPVTRFFYGCKEYLHKLLIQGDSSGRLSIWNIADIADKQEANEGLKTTTCISLQDAFDKLKPCPAGIIDQLSVIPNSNEPLKVTASVYIPAHGRLVCGREDGSIIIVPATQTAIVQLLQGEHMLRRGWPPHRTLRGHRNKVTCLLYPHQVSARYDQRYLISGGVDFSVIIWDIFSGEMKHIFCVHGGEITQLLVPPENCSARVQHCVCSVASDHSVGLLSLREKKCIMLASRHLFPIQVIKWRPSDDYLVVGCTDGSVCVWQMDTGALDRCAMGITAVEILNACDEAVPAAVDSLSHPAVNLKQAMTRRSLAALKNMAHHKLQTLATNLLASEASDKGNLPKYSHNSLMVQAIKTNLTDPDIHVLFFDVEALIIQLLTEEASRPNTALISPENLQKASGSSDKGGSFLTGKRAAVLFQQVKETIKENIKEHLLDEEEDEEEVMRQRREESDPEYRASKSKPLTLLEYNLTMDTAKLFMSCLHAWGLNEVLDEVCLDRLGMLKPHCTVSFGLLSRGGHMSLMLPGYNQAAGKLLQAKAEAGRKGPATESVGKGTYTVSRAVTTQHLLSIISLANTLMSMTNATFIGDHMKKGPTRPPRPGTPDLSKARDSPPASSNIVQGQIKQAAAPVSARSAADHSGSASASPALRTCFLVNEGWSQLAAMHCVMLPDLLGLGKFRPPLLEMLARRWQDRCLEVREAAQALLLAELRRIEQAGRKETIDTWAPYLPQYMDHVISPGVTAEAMQTMAAAPDASGPEAKVQEEEHDLVDDDITTGCLSSVPQMKKMSTSYEERRKQATAIVLLGVIGAEFGAEIEPPKLLTRPRSSSQIPEGFGLTSGGSNYSLARHTCKALTFLLLQPPSPKLPPHSTIRRTAIDLIGRGFTVWEPYMDVSAVLMGLLELCADAEKQLANITMGLPLSPAADSARSARHALSLIATARPPAFITTIAKEVHRHTALAANTQSQQSIHTTTLARAKGEILRVIEILIEKMPTDVVDLLVEVMDIIMYCLEGSLVKKKGLQECFPAICRFYMVSYYERSHRIAVGARHGSVALYDIRTGKCQTIHGHKGPITAVSFAPDGRYLATYSNTDSHISFWQMNTSLLGSIGMLNSAPQLRCIKTYQVPPVQPASPGSHNALRLARLIWTSNRNVILMAHDGKEHRFMV
notes: Rabconnectin3β / WDR7, endogenous protein of rat brain; also called Rabcn3β; Rbcn3β/WDR7; source: endogenous, rat brain crude synaptosomal membrane fraction, solubilized in 1% Triton X-100
